# The Human Domainome abundance scans (Beltran et al. 2025)
# ± gives the uncertainty stated by the source.
# B1: POU domain, class 3, transcription factor 2, residues 262 to 338; numbered along this chain, P20265 (parent)
# chain: EDTPTSDDLEQFAKQFKQRRIKLGFTQADVGLALGTLYGNVFSQTTICRFEALQLSFKNMCKLKPLLNKWLEEADSS
# Variants of: B1
# Assay: abundance fitness (aPCA) (normalised: wild type 0, dead -1); higher = more abundant; growth selection in yeast, the domain comes from the species named
# Conditions: Homo sapiens
row,Variant,abundance fitness
1,EDTPTSDDLEQFAKQFKQRRIKLGFTQADVGLALGTLYGNVFSQTTICRFEADQLSFKNMCKLKPLLNKWLEEADSS [L53D],-0.411 ± 0.068
2,EDTPTSDDLEQFAKQFKQRRIKLGFTQADVGLALGTLYGNVFSQTTICRFEAHQLSFKNMCKLKPLLNKWLEEADSS [L53H],-0.017 ± 0.069
3,EDTPTSDDLEQFAKQFKQRRIKLGFTQADVGLALGTLYGNVFSQTTICRFEASQLSFKNMCKLKPLLNKWLEEADSS [L53S],-0.007 ± 0.038
4,EDTPTSDDLEQFAKQFKQRRIKLGFTQADVGLALGTLYGNVFSQTTICRFEAEQLSFKNMCKLKPLLNKWLEEADSS [L53E],-0.311 ± 0.053
5,EDTPTSDDLEQFAKQFKQRRIKLGFTQADVGLALGTLYGNVFSQTTICRFEAMQLSFKNMCKLKPLLNKWLEEADSS [L53M],0.017 ± 0.042
6,EDTPTSDDLEQFAKQFKQRRIKLGFTQADVGLALGTLYGNVFSQTTICRFEANQLSFKNMCKLKPLLNKWLEEADSS [L53N],-0.022 ± 0.11
7,EDTPTSDDLEQFAKQFKQRRIKLGFTQADVGLALGTLYGNVFSQTTICRFEAPQLSFKNMCKLKPLLNKWLEEADSS [L53P],-0.961 ± 0.28
8,EDTPTSDDLEQFAKQFKQRRIKLGFTQADVGLALGTLYGNVFSQTTICRFEAFQLSFKNMCKLKPLLNKWLEEADSS [L53F],-0.09 ± 0.061
9,EDTPTSDDLEQFAKQFKQRRIKLGFTQADVGLALGTLYGNVFSQTTICRFEAYQLSFKNMCKLKPLLNKWLEEADSS [L53Y],0.018 ± 0.07
10,EDTPTSDDLEQFAKQFKQRRIKLGFTQADVGLALGTLYGNVFSQTTICRFEAAQLSFKNMCKLKPLLNKWLEEADSS [L53A],0.016 ± 0.034
11,EDTPTSDDLEQFAKQFKQRRIKLGFTQADVGLALGTLYGNVFSQTTICRFEAVQLSFKNMCKLKPLLNKWLEEADSS [L53V],-0.009 ± 0.031
12,EDTPTSDDLEQFAKQFKQRRIKLGFTQADVGLALGTLYGNVFSQTTICRFEATQLSFKNMCKLKPLLNKWLEEADSS [L53T],-0.138 ± 0.046
13,EDTPTSDDLEQFAKQFKQRRIKLGFTQADVGLALGTLYGNVFSQTTICRFEAQQLSFKNMCKLKPLLNKWLEEADSS [L53Q],-0.034 ± 0.049
14,EDTPTSDDLEQFAKQFKQRRIKLGFTQADVGLALGTLYGNVFSQTTICRFEAKQLSFKNMCKLKPLLNKWLEEADSS [L53K],-0.06 ± 0.06
15,EDTPTSDDLEQFAKQFKQRRIKLGFTQADVGLALGTLYGNVFSQTTICRFEACQLSFKNMCKLKPLLNKWLEEADSS [L53C],0.044 ± 0.042
16,EDTPTSDDLEQFAKQFKQRRIKLGFTQADVGLALGTLYGNVFSQTTICRFEALELSFKNMCKLKPLLNKWLEEADSS [Q54E],-0.03 ± 0.045
17,EDTPTSDDLEQFAKQFKQRRIKLGFTQADVGLALGTLYGNVFSQTTICRFEALKLSFKNMCKLKPLLNKWLEEADSS [Q54K],0.045 ± 0.055
18,EDTPTSDDLEQFAKQFKQRRIKLGFTQADVGLALGTLYGNVFSQTTICRFEALRLSFKNMCKLKPLLNKWLEEADSS [Q54R],-0.156 ± 0.035

row,Variant,abundance fitness
1,EDTPTSDDLEQFAKQFKQRRIKLGFTQADVGLALGTLYGNVFSQTTICRFEALDLSFKNMCKLKPLLNKWLEEADSS [Q54D],-0.035 ± 0.063
2,EDTPTSDDLEQFAKQFKQRRIKLGFTQADVGLALGTLYGNVFSQTTICRFEALYLSFKNMCKLKPLLNKWLEEADSS [Q54Y],-0.726 ± 0.27
3,EDTPTSDDLEQFAKQFKQRRIKLGFTQADVGLALGTLYGNVFSQTTICRFEALSLSFKNMCKLKPLLNKWLEEADSS [Q54S],-0.157 ± 0.045
4,EDTPTSDDLEQFAKQFKQRRIKLGFTQADVGLALGTLYGNVFSQTTICRFEALWLSFKNMCKLKPLLNKWLEEADSS [Q54W],-0.436 ± 0.057
5,EDTPTSDDLEQFAKQFKQRRIKLGFTQADVGLALGTLYGNVFSQTTICRFEALNLSFKNMCKLKPLLNKWLEEADSS [Q54N],-0.113 ± 0.081
6,EDTPTSDDLEQFAKQFKQRRIKLGFTQADVGLALGTLYGNVFSQTTICRFEALVLSFKNMCKLKPLLNKWLEEADSS [Q54V],-0.535 ± 0.06
7,EDTPTSDDLEQFAKQFKQRRIKLGFTQADVGLALGTLYGNVFSQTTICRFEALLLSFKNMCKLKPLLNKWLEEADSS [Q54L],-0.316 ± 0.049
8,EDTPTSDDLEQFAKQFKQRRIKLGFTQADVGLALGTLYGNVFSQTTICRFEALHLSFKNMCKLKPLLNKWLEEADSS [Q54H],-0.2 ± 0.063
9,EDTPTSDDLEQFAKQFKQRRIKLGFTQADVGLALGTLYGNVFSQTTICRFEALGLSFKNMCKLKPLLNKWLEEADSS [Q54G],-0.23 ± 0.038
10,EDTPTSDDLEQFAKQFKQRRIKLGFTQADVGLALGTLYGNVFSQTTICRFEALTLSFKNMCKLKPLLNKWLEEADSS [Q54T],-0.068 ± 0.054
11,EDTPTSDDLEQFAKQFKQRRIKLGFTQADVGLALGTLYGNVFSQTTICRFEALMLSFKNMCKLKPLLNKWLEEADSS [Q54M],-0.294 ± 0.074
12,EDTPTSDDLEQFAKQFKQRRIKLGFTQADVGLALGTLYGNVFSQTTICRFEALFLSFKNMCKLKPLLNKWLEEADSS [Q54F],-0.933 ± 0.37
13,EDTPTSDDLEQFAKQFKQRRIKLGFTQADVGLALGTLYGNVFSQTTICRFEALQLSGKNMCKLKPLLNKWLEEADSS [F57G],-0.246 ± 0.028
14,EDTPTSDDLEQFAKQFKQRRIKLGFTQADVGLALGTLYGNVFSQTTICRFEALQLSIKNMCKLKPLLNKWLEEADSS [F57I],-0.049 ± 0.063
15,EDTPTSDDLEQFAKQFKQRRIKLGFTQADVGLALGTLYGNVFSQTTICRFEALQLSMKNMCKLKPLLNKWLEEADSS [F57M],-0.046 ± 0.039
16,EDTPTSDDLEQFAKQFKQRRIKLGFTQADVGLALGTLYGNVFSQTTICRFEALQLSHKNMCKLKPLLNKWLEEADSS [F57H],-0.015 ± 0.06
17,EDTPTSDDLEQFAKQFKQRRIKLGFTQADVGLALGTLYGNVFSQTTICRFEALQLSDKNMCKLKPLLNKWLEEADSS [F57D],-0.105 ± 0.066
